Experimental findings from publication PMC10502012, “Molecular basis of TASL recruitment by the peptide/histidine transporter 1, PHT1” (Nature Communications, 2023) are described below.

Series [1] addresses chicken PHT1 (purified, wild type) (chicken).
The target in series [2] is T1, chicken PHT1 L12A/L13A (purified, deglycosylated, cryo-EM sample) (Gallus gallus (chicken), UniProt A0A8V0ZFZ8;A0A8V0Z8V0, point mutant).
T1 construct: chicken PHT1 (SLC15A4), full length, 581 residues, with L12A and L13A; Residues 19-569 modelled in the map; also called plasma membrane mutant of PHT1; source: Expi293F GnT1-, transiently transfected, Strep-Tactin purified, treated with EndoH, gel filtration
In words: thermal shift (nanoDSF); PHT1 alone against PHT1-Sb27 at 0.4 mg/mL in 50 mM HEPES pH 7.5, 100 mM NaCl, 0.02% DDM/0.004% CHS. To be noted: both partners purified. (In general: DSF heats the sample and reads unfolding from a dye or from intrinsic fluorescence.)

For series [3], the target named is T1, chicken PHT1 L12A/L13A (purified, …). Put plainly: cryo-EM structure; PHT1 L12A/L13A with two-fold molar excess of Sb27, EndoH, gel filtration; 10 mM MOPS pH 7.0, 100 mM NaCl, 0.01% DDM/0.002% CHS. To be noted: both partners purified.

Changes are numbered by the printed parent chain.

The stoichiometry N is the number of molecules, sites or subunits per partner or assembly.

chicken PHT1 (purified, wild type) (chicken), sequence (chain, as listed by the source): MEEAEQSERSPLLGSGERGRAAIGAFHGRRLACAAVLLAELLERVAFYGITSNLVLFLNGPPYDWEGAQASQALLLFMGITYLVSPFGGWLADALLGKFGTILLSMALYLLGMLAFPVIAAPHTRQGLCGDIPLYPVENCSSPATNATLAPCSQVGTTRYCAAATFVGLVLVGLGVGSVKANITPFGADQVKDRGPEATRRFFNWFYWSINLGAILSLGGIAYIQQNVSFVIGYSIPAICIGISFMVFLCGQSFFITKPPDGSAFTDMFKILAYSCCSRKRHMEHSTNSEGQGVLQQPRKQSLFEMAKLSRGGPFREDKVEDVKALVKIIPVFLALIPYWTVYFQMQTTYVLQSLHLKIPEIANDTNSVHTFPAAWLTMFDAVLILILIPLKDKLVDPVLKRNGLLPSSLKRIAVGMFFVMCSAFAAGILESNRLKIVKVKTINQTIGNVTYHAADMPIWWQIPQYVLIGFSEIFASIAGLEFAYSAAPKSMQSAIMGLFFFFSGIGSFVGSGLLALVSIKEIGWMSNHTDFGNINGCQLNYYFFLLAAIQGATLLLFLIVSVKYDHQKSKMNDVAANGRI

B1: 105 (VHH)
VHH: QVQLVESGGGLVQAGGSLRLSCAASGFPVYIKWMRWYRQAPGKEREWVAAISSNGEYTEYADSVKGRFTISRDNAKNTVYLQMNSLKPEDTAVYYCNVKDYGHTQWRYDYWGQGTQVTVSA
As to B1, in series [1], the binding result was “binds”.

B2: 109 (VHH)
VHH: B1 VHH with Y30G, I31H, S52N, N54H, Y57F, H103W, Q105A, R107A
In the case of B2, in series [1], the binding result is “binds”.

B3: 121 (VHH)
VHH: B1 VHH with Y30E, I31Q, K32S, S52N, N54W, Y101Q, H103Y, T104E, Q105H, W106Q
B3: in series [1], the binding result is recorded as “binds”.

B4: 116 (VHH)
VHH: QVQLVESGGGPVQAGGSLRLSCAASGFPVNTRTMHWYRQAPGKEREWVAAIYSSGQNTFYADSVKGRFTISRDNAKNTVYLQMNSLKPEDTAVYYCNVKDWGNIWEYDYWGQGTQVTVSA
For the molecule B4, the binding result in series [1] was “binds”.

B5: 139 (VHH)
VHH: QVQLVESGGGSVQAGGSLRLSCAASGHIRWIKYLGWFRQAPGKEREGVAALYTYEGQTYYADSVKGRFTVSLDNAKNTVYLQMNSLKPEDTALYYCAAAYFGAFYPLSYDAYYYWGQGTQVTVSA
With B5, the binding result in series [1] was “binds”.

B6: 111 (VHH)
VHH: QVQLVESGGGLVQAGGSLRLSCAASGFPVYSSWMRWYRQAPGKEREWVAAINSHGDYTEYADSVKGRFTISRDNAKNTVYLQMNSLKPEDTAVYSCNVKDHGYYMKHYDYWGQGTQVTVSA
On to B6, for which the binding result in series [1] is “binds”.

B7: 146 (VHH)
VHH: QVQLVESGGGLVQAGGSLRLSCAASGFPVDTTNMHWYRQAPGKEREWVAAIHSSGTYTFYADSVKGRFTISRDNAKNTVYLQMNSLKPEDTAVYYCNVKDKGAHLWWYDYWGQGTQVTVSA
On to B7, for which, in series [1], the binding result is “binds”.

B8: 143 (VHH)
VHH: QVQLVESGGGLVQAGGSLRLSCAASGFPVYSAVMYWYRQAPGKEREWVASIGSTGQHTYYADSVKGRFTISRDNAKNTVYLQMNSLKPEDTAVYYCNVKDVGEYMYWYDYWGQGTQVTVSA
Turning to B8, in series [1], the binding result is listed as “binds”.

B9: 104 (VHH)
VHH: QVQLVESGGGLVQAGGSLRLSCAASGFPVWNSWMRWYRQAPGKEREWVAAINSYGDHTEYADSVKGRFTISRDNAKNTVYLQMNSLKPEDTAVYYCNVKDYGEWWNNYDYWGQGTQVTVSA
Take B9: the binding result in series [1] was “binds”.

B10: 155 (VHH)
VHH: B9 VHH with S25G, W30K, N31T, Y54T, H57W, E103V, W104Q, W105T, N106Y, N107Y
Take B10: in series [1], the binding result was “binds”.

B11: sybody 27 (VHH)
VHH: QVQLVESGGGSVQAGGSLRLSCAASGDIETIWYLGWFRQAPGKEREGVAALSTVTGSTYYADSVKGRFTVSLDNAKNTVYLQMNSLKPEDTALYYCAAAYTGWMAPLWQWVYSYWGQGTQVTVSA
notes: synthetic nanobody selected from the sybody libraries; Expressed from the pSBinit plasmid; also called Sb27; Sb27a; source: E. coli MC1061 F-, periplasm, purified (Ni-NTA, gel filtration)
For B11, the “increase of the melting temperature of PHT1” value in series [2] was 6 degrees. Moreover, the “stoichiometry N” value in series [3] was determined as 2.

B12: 134 (VHH)
VHH: QVQLVESGGGLVQAGGSLRLSCAASGFPVYQTYMYWYRQAPGKEREWVAAINSTGYFTRYADSVKGRFTISRDNAKNTVYLQMNSLKPEDTAVYYCNVKDLGWWSEQYDYWGQGTQVTVSA
As for B12, the binding result in series [1] is reported as “binds”.

B13: 140 (VHH)
VHH: B12 VHH with Y30W, Q31A, N52G, Y56W, R59V, L101Y, W104F, S105E, E106Y, Q107R
In the case of B13, the binding result in series [1] is recorded as “binds”.
